In paper doi:10.1101/2021.12.29.474402:

Target: SARS-CoV-2 Omicron (B.1.1.529) spike, prefusion-stabilized soluble trimeric ectodomain (S-trimer) (SARS-CoV-2 | bacteriophage T4) (UniProt P0DTC2)
Assay: cryo-EM structure

Chain of human ACE2 (Q9BYF1 19-612): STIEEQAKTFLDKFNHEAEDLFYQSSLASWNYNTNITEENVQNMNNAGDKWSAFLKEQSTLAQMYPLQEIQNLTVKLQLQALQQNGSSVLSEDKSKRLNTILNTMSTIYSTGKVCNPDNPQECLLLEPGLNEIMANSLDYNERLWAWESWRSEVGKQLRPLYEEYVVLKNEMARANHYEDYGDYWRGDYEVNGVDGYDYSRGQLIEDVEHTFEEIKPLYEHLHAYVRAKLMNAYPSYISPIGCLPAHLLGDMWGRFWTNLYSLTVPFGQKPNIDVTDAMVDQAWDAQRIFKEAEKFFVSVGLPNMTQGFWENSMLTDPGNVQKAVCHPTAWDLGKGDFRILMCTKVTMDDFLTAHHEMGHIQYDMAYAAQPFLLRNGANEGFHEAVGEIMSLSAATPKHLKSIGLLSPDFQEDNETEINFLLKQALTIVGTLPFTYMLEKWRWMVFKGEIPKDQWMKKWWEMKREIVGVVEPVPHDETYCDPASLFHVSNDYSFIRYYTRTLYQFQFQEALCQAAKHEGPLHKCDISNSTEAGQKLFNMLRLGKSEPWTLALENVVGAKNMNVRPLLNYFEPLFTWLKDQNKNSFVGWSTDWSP

## human ACE2 (from UniProt Q9BYF1) (receptor)
  stoichiometry N (ACE2 per S-trimer): 2
